Laboratory results published in publication PMC10030352.

Target: human NCC_(cryo1) (human) (UniProt P55017)
Assay: cryo-EM structure

- stoichiometry N: 2
Substance: human NCC_(cryo1) (from UniProt P55017 1-1021) (natural protein)
